In the test the target is Nup170p (recombinant, released from GST by thrombin) (S. cerevisiae, UniProt P38181 1-1502). Briefly: pull-down.
Nup170p (recombinant, released from GST by thrombin), sequence (P38181 whole entry): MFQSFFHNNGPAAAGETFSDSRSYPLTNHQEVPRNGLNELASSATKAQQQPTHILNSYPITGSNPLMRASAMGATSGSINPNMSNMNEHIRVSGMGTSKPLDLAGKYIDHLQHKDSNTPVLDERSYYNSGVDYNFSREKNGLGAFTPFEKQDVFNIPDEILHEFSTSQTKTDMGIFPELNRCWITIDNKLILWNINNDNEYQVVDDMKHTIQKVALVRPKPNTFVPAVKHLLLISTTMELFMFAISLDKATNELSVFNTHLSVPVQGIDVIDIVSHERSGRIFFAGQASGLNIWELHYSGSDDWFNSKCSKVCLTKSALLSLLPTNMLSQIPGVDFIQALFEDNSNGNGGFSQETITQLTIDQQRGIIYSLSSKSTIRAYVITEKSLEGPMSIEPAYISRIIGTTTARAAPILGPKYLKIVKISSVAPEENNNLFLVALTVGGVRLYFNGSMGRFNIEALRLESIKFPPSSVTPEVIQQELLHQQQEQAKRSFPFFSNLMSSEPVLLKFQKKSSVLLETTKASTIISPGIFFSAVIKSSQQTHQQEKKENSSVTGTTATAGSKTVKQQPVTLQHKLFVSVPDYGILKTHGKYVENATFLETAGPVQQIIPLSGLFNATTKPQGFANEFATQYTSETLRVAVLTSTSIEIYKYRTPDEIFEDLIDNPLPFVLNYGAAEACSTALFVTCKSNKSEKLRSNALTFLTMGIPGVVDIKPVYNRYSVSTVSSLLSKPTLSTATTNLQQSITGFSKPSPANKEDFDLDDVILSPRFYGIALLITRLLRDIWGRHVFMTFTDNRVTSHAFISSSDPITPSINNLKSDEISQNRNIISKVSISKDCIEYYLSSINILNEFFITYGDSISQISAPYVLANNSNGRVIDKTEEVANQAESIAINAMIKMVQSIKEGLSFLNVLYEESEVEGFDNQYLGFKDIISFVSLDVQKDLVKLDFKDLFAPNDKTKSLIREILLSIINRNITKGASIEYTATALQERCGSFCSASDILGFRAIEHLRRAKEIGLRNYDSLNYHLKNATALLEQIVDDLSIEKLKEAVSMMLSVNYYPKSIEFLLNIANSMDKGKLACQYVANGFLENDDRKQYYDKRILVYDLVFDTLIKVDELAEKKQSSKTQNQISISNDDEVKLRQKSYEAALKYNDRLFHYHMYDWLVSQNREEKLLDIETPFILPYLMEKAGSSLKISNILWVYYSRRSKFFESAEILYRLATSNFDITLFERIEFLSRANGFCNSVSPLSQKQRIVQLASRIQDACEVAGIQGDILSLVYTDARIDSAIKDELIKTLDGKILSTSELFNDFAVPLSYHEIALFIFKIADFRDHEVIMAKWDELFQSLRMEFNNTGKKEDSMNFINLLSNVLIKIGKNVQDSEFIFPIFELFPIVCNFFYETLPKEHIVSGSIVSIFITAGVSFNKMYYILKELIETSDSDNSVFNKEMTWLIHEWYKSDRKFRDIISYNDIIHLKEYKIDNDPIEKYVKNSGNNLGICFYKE

B1: GST-Pom152p^1-111 (domain or fragment, S. cerevisiae, UniProt P39685 1-111, looked up)
chain: MEHRYNVFNDTPRGNHWMGSSVSGSPRPSYSSRPNVNTTRRFQYSDDEPAEKIRPLRSRSFKSTESNISDEKSRISERDSKDRYINGDKKVDIYSLPLISTDVLEISKQRT
For B1, the binding result is “binds”.
